Measured values: paper doi:10.1101/116491 (bioRxiv, 2017)

Assays:
[1] = target: OCP variant devoid of the N-terminal extension, purple fraction, ΔNTE(P) (Synechocystis) (UniProt P74102); test: SEC
cross-linking = target: the molecule itself; test: cross-linking
[2] = target: T1, Orange Carotenoid Protein, wildtype, His6-tagged, Synechocystis (OCP^WT) (Synechocystis, UniProt P74102 1-317); test: cross-linking
T1 sequence: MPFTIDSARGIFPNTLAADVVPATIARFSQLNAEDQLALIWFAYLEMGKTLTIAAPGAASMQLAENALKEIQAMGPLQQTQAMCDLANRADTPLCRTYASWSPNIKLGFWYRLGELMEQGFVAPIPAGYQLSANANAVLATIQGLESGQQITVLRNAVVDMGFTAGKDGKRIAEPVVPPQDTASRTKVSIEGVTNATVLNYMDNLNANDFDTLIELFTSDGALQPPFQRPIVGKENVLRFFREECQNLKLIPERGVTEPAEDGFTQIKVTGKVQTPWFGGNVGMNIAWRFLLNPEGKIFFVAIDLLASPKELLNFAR

[3] = target: T2, OCP variant devoid of the N-terminal extension, orange fraction, ΔNTE(O) (Synechocystis, UniProt P74102 21-317); test: SEC
T2 sequence: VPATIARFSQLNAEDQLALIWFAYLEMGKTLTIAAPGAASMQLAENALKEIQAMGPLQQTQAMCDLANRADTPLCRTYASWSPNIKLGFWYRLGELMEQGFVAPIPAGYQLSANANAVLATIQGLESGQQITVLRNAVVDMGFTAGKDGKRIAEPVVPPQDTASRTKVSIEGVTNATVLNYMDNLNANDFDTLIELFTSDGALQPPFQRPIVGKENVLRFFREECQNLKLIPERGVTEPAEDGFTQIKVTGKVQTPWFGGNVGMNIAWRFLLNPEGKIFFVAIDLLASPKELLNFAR

**Q.** Which stoichiometry N [1] does the source give for “OCP variant devoid of the N-terminal extension, purple fraction, ΔNTE(P) (from UniProt P74102 21-317) (domain or fragment)” here?
**A.** The stoichiometry N was 2.

B1: Fluorescence Recovery Protein (FRP), His6-tagged, Synechocystis (natural protein)
chain: LQTAEAPWSQAETQSAHALFRKAYQRELDGLLATVQAQASQITQIDDLWKLHDFLSAKRHEIDGKYDDRQSVIIFVFAQLLKEGLVQAEELTFLAADKQSKIKALARL
**Q.** How did the “stoichiometry N” value (cross-linking) turn out when B1 was run?
**A.** Its value is 2.

**Q.** What about the “stoichiometry N” value [2] of the same molecule?
**A.** The value was 1.

**Q.** And the Kd [3]?
**A.** The Kd was < 1 µM.

**Q.** What about the “stoichiometry N” value [3] of the same molecule?
**A.** The value was 1.
